Laboratory results: patent US10829560B2, “Agents binding specifically to human cadherin-17, human cadherin-5, human cadherin-6 and human cadherin-20 RGD motif” (CONSEJO SUPERIOR DE INVESTIGACIONES CIENTÍFICAS, priority 2015, dated 2020)

Columns and labels:
β1 integrin = target: T1, β1 integrin (Homo sapiens, UniProt P05556+P17301); assay: β1 integrin activation by CDH17 proteins or cadherin RGD peptides (HUTS21 flow cytometry); format: cell-based; conditions: for induction of β1 integrin activation: RKO cells, 1 μg/mL peptide, FIG. 17; for conformational change of β1-integrin into a high affinity conformation: 9 aa peptides, MDA-MB-468, BLM and RKO cells, FIG. 16; for β1 integrin in high-affinity conformation: RKO and KM12SM cells, FIG. 5B, 5C
T1 construct: endogenous in cells; host or cells: RKO (A4); RKO, KM12SM, MDA-MB-468 and BLM (A9)
T1 sequence (P05556 21-798): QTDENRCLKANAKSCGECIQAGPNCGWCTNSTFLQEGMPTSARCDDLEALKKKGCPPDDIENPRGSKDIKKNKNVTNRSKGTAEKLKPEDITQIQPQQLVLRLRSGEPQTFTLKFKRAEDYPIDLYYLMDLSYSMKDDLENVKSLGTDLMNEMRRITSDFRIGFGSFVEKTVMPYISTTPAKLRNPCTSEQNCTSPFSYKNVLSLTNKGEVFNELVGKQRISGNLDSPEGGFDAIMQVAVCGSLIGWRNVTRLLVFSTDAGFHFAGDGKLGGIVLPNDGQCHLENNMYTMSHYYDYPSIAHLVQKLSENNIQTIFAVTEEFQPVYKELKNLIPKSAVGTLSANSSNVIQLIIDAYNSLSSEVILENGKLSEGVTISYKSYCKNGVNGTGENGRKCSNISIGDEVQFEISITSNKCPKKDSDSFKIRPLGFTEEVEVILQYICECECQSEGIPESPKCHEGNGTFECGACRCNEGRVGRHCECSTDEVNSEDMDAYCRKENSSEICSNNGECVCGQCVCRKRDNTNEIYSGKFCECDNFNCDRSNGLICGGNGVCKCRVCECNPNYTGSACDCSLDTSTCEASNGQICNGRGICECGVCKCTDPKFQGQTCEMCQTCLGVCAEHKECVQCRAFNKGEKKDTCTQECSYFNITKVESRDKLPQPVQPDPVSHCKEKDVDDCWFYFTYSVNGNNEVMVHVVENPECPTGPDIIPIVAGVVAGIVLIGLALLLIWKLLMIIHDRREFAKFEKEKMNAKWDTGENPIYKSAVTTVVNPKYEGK
T1 sequence (P17301 30-1181): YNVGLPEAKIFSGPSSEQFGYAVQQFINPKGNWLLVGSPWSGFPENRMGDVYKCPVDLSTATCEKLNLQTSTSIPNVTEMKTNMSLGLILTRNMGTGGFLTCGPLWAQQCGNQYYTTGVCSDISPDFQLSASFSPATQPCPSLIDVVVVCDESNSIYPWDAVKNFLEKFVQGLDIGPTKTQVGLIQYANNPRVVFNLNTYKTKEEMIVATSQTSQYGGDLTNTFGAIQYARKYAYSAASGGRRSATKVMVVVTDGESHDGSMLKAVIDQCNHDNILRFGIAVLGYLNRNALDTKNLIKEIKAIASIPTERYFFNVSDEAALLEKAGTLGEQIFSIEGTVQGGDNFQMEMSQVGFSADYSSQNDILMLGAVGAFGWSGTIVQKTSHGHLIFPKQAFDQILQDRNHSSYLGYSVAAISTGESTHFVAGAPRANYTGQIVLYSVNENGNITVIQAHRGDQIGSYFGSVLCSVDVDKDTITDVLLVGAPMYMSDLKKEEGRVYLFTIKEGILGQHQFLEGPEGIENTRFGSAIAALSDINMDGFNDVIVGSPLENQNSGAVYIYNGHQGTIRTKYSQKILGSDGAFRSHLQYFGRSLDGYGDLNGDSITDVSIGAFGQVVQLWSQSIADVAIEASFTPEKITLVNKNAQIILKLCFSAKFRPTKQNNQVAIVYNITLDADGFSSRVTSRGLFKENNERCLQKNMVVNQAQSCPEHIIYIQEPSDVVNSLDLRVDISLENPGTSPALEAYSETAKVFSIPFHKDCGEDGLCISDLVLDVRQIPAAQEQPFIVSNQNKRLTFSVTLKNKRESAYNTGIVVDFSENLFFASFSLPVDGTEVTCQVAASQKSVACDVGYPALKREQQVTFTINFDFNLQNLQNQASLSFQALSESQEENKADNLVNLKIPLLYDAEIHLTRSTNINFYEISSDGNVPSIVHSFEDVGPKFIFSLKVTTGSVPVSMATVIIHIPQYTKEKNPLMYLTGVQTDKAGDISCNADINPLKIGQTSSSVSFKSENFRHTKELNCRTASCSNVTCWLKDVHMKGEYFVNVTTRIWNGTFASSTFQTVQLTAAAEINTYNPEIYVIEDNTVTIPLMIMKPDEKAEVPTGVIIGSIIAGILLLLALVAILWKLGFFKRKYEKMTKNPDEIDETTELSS
Description: Cells were detached with 2 mM EDTA in PBS, incubated at 4° C. with primary antibodies (10 μg/ml) for 30 min, washed and incubated with Alexa 488 labelled-secondary antibodies (anti-mouse IgG or anti-rabbit IgG, Dako). Fluorescence was analysed in a Coulter Epics XL cytofluorometer. Mean fluorescence intensities for the indicated antibodies are shown inside each panel. As a reference, irrelevant control antibodies (anti-cadherin-11, Santa Cruz Biotechnologies) gave a mean fluorescence intensity of 0.3.
RKO cells were detached with 2 mm EDTA in PBS, washed with PBS, resuspended in DMEM and incubated with a 9-amino acid peptide containing the RGD motif and the flanking sequences from cadherin 5 (SEQ ID NO: 37 for the RGD motif of domain 2 (CDH5A), and SEQ ID NO: 19 for the RGD motif of domain 3 (CDH5B)), cadherin 6 (SEQ ID NO: 38), cadherin 17 (VSLRGDTRG) (SEQ ID NO: 1), cadherin 20 (SEQ ID NO: 39), and cadherin 16 (SEQ ID NO: 31, RAIRGDTEG) for 25 min at 37° C. in presence of immune sera or control serum (diluted 1:50). After incubation, cells were subjected to flow cytometry assays using anti-β1 integrin in high-affinity conformation antibodies (Huts21, BD Pharmingen) and Alexa 488-coupled anti-mouse IgG antibodies (Abcam). Fluorescence was analysed in a Coulter Epics XL cytofluorometer. Mean fluorescence intensities for the indicated antibodies are shown inside each panel. As a reference, irrelevant control antibodies gave a mean fluorescence intensity of 0.3.
Alternatively, RKO cells were starved for 4 h, detached with EDTA 2 mM in PBS, and incubated in serum-free DMEM with 1 μg/mL of the following peptides: 9 aa peptides including the RGD motifs and the flanking sequences corresponding to the cadherin 17 (SEQ ID NO: 1) and the two motifs present in cadherin-5 (SEQ ID NO: 37 for the RGD motif of domain 2 (CDH5A), and SEQ ID: 19 for the RGD motif of domain 3 (CDH5B)), and 7 aa or 5 aa peptides with 2 aa or 1 aa respectively in each side of the RGD motif corresponding to the sequence of CDH17, SLRGDTR (SEQ ID NO: 32), and LRGDT (SEQ ID NO: 14), respectively. Simultaneously the cells were incubated to the indicated anti-CDH17 RGD monoclonal antibodies (10 μg/mL). After 40 min, cells were washed and subjected to flow cytometry assays using HUTS21 antibody, which binds to β1-integrin in high affinity conformation. Data were collected in a FACScalibur™ cytometer (BD) and represented as % of the β1-integrin activation induced by the 9 aa CDH17 RGD peptide (SEQ ID NO: 1).

RKO and KM12SM cells [1] = assay: Soluble binding assay using CDH17 ectodomain as ligand (flow cytometry); format: cell-based, human; conditions: 10 μg/mL, FIG. 3E
Description: (§1) For soluble binding assays, cells were detached, incubated for 40 min with CDH17 ectodomain (10 μg/mL) at 37° C. in Ca2+, Mg2+ and Mn2+-free HBSS medium (Life Technologies), washed, incubated with anti-CDH17 antibodies at 4° C., washed again, incubated with secondary antibodies and analyzed by flow cytometry. For cell adhesions to CDH17 Domain 6 (2-10 μg/mL), adhesion assays in 96 wells microtiter plates were performed as above but in medium containing 1 mM MnCl2 and cells were washed gently, using a multi-channel pipette. For blocking assays, cells were preincubated with anti-β1 integrin (5 μg/mL) for 10 min before adhesion.

RKO and KM12SM cells [2] = assay: Cell adhesion to Matrigel after incubation with CDH17 DOM6 or Ecd; format: cell-based, human; conditions: FIG. 5D
Description: For cell adhesion, 96-well plates were coated with Matrigel (4 μL/mL) (BD Biosciences) or type IV collagen ([…]) (Sigma-Aldrich) in coating buffer (0.1 M NaHCO3 pH 8.8) for 20 h and incubated with adhesion medium (0.4% BSA in serum-free DMEM) for 2 h to block unspecific binding. Cell were starved for 5 h without serum, labeled with BCECF-AM (Invitrogen), detached with 2 mM EDTA in PBS, resuspended in serum-free DMEM and 7×10^4 cells in 100 μL were added to plates in triplicate and then incubated for 25 min. Non-adherent cells were removed by three washes with DMEM. Bound cells were quantified using a fluorescence analyzer (POLARstar Galaxy).

RKO and KM12SM cells [3] = assay: Cell adhesion to plates coated with CDH17 domain 6; format: cell-based, human; conditions: for inhibition of cell adhesion to CDH17 domain 6 wt: FIG. 4B; for optimal dose for promoting cell adhesion to coated plates: FIG. 4A
Description: as §1

With SLRGDTR (listed as Homo sapiens) the “induction of β1 integrin activation” value (β1 integrin) was “able to induce efficiently the integrin activation”.

With “Ecd RAD: recombinant CDH17 ectodomain mutant lacking RGD motif (RAD)” the “binding to the cell surface” value (RKO and KM12SM cells [1]) was “unable to bind to cells” and the “cell adhesion to Matrigel after incubation” value (shortened to “cell adhesion to Matrigel”) (RKO and KM12SM cells [2]) was “significantly enhanced”.

In the case of “QGLRGDSGT (listed as Homo sapiens) [CDH5A]”, the “conformational change of β1-integrin into a high affinity conformation” value (shortened to “conformational change”) (β1 integrin) is reported as “induced the conformational change of β1-integrin into a high affinity conformation” and the “induction of β1 integrin activation” value (β1 integrin) is reported as “able to activate beta1 integrin”.

In the case of “RAIRRGDTEG (listed as Homo sapiens) [CDH16 RGD, reference compound]”, the “β1 integrin in high-affinity conformation” value (β1 integrin) is reported as “had no effect on β1 integrin activation”.

In the case of “VSLRGDTRG (listed as Homo sapiens) [CDH17 peptide]”, the “conformational change” value (β1 integrin) is reported as “induced the conformational change of β1-integrin into a high affinity conformation” and the “β1 integrin in high-affinity conformation” value (β1 integrin) is reported as “increased high-affinity conformation β1 integrin in both cell lines”.

“CDH17 ectodomain: purified recombinant CDH17 ectodomain (wild type) expressed in baculovirus” was tested, and the “binding to the cell surface” value (RKO and KM12SM cells [1]) was “bound to the cell surface”, the “β1 integrin in high-affinity conformation” value (β1 integrin) was “enhanced the amount of β1 integrin in high-affinity conformation” and the “cell adhesion to Matrigel” value (RKO and KM12SM cells [2]) was “significant increase in cell adhesion to Matrigel”.

In the case of RADS [RADS peptide], the “inhibition of cell adhesion to CDH17 domain 6 wt” value (RKO and KM12SM cells [3]; both cell lines) is reported as “did not inhibit cell adhesion”.

With RGDS [RGDS peptide] the “concentration at which competition of cell adhesion to CDH17 domain 6 wt started” value (RKO and KM12SM cells [3]; both cell lines, 1 mM MnCl2, FIG. 4B) was 1 µM and the “inhibition of cell adhesion to CDH17 domain 6 wt” value (RKO and KM12SM cells [3]; both cell lines) was “clear dose-dependent effect”.

With “DQDRGDGSL (listed as Homo sapiens) [SEQ ID NO: 38]” the “conformational change” value (β1 integrin) was “induced the conformational change of β1-integrin into a high affinity conformation”.

“DMDRGDGSI (listed as Homo sapiens) [SEQ ID NO: 39]” was tested, and the “conformational change” value (β1 integrin) was “induced the conformational change of β1-integrin into a high affinity conformation”.

“SILRGDYQD (listed as Homo sapiens) [CDH5 RGD peptide]” was tested, and the “conformational change” value (β1 integrin) was “induced the conformational change of β1-integrin into a high affinity conformation” and the “induction of β1 integrin activation” value (β1 integrin) was “able to activate beta1 integrin”.

With LRGDT (listed as Homo sapiens) the “induction of β1 integrin activation” value (β1 integrin) was “able to induce efficiently the integrin activation”.

“RAIRGDTEG (listed as Homo sapiens) [SEQ ID NO: 31, reference compound]” was tested, and the “conformational change” value (β1 integrin) was “not”.

B1: domain 6 wt: recombinant CDH17 domain 6 (571-665) expressed in E. coli (protein)
chain: FQAKVSEDVAIGTKVGNVTAKDPEGLDISYSLRGDTRGWLKIDHVTGEIFSVAPLDREAGSPYRVQVVATEVGGSSLSSVSEFHLILMDVNDNPP
For B1, the “β1 integrin in high-affinity conformation” value (β1 integrin) was “enhanced the amount of β1 integrin in high-affinity conformation”, the “cell adhesion to Matrigel” value (RKO and KM12SM cells [2]) was “significant increase in cell adhesion to Matrigel” and the “cell adhesion to Matrigel” value (RKO and KM12SM cells [2]; listed as CDH17 DOM6 wt) was “significantly enhanced”. The “optimal dose for promoting cell adhesion to coated plates” value (RKO and KM12SM cells [3]; KM12SM) was 10 µg/mL and the “optimal dose for promoting cell adhesion to coated plates” value (RKO and KM12SM cells [3]; RKO) was 2 µg/mL.
